Experiment: Effect of pH on N-sulfamidase activity by capillary electrophoresis
Format: biochemical
Description: Initial assessment of substrate specificity and pH optima was made using a capillary electrophoresis-based assay for the detection of desulfated products. Preliminary enzyme activity was measured against the following series of fluorescently derivatized, monosulfated gluco and galactopyranosides: 4-MU-GlcNAc,6S, 4-MU-GlcNS, 4-MU-GalNAc,6S and 4-MU-Gal6S. Standard reactions included 1 mM substrate, 1-10 μM enzyme, 50 mM sodium acetate, pH 5.5-6.5 and 5 mM CaCl2 in a 20 μL reaction volume. For pilot experiments, exhaustive reactions involved overnight incubations at 30° C. Enzyme was inactivated by heat denaturation at 95° C. for 10 minutes, followed by a 10-fold dilution into water. Reaction products were resolved by capillary electrophoresis using a 25 cm long, 75 μm (i.d.) fused silica capillary (Agilent Technologies, Palo Alto, Calif.). Electrophoresis was carried out under negative polarity by applying a voltage of −15 kV (˜1.2 W) for 10 minutes. Substrate desulfation was measured as a percentage of substrate depletion relative to a minus enzyme control as monitored by the loss of UV absorbance at 315 nm detected at approximately 4 minutes. A standard capillary electrophoresis buffer included 50 mM Tris and 10 μM dextran sulfate (average MW of 10,000 Da) adjusted to pH 2.0 with phosphoric acid. At this pH, saccharide migration occurred on the basis of charge without the influence of electro-osmotic flow.
The effect of pH was likewise measured by capillary electrophoresis using the following three sets of buffers with overlapping pH ranging from 4.5 to 8.0:50 mM sodium citrate at 4.5, 5.0, and 5.5; 50 mM MES at 5.5, 6.0, 6.5 and 7.0; and 50 mM MOPS at 6.5, 7.0, 7.5, and 8.0. Reactions included 1 μM enzyme, 2 mM 4-MU-GlcNAc,6S (for 6-O-sulfatase) or 4-MU-GlcNS (for N-sulfamidase), 50 mM buffer and 5 mM CaCl2 in a 20 μL reaction volume. Assay was initiated by the addition of 2 μl of a 10× enzyme stock to 18 μL of preheated reaction mixture. […]

activity below pH 4.5 (below pH 4.5): Neither enzyme was active | activity in acetate buffer compared to sulfonate buffers (MES, MOPS) (same pH range): higher activity in acetate buffer
B1: Flavobacterium heparinum N-sulfamidase (ORF C), recombinant, NH2-terminal truncation lacking signal sequence, SEQ ID NO: 4 (Pedobacter heparinus DSM 2366) (protein)
chain: SCTSPEKKTDRPNILMIMSDNQSWNHVGSYGDQTVRTPNMDRIAKEGVRFTNAFCSSPSCTPARAGMLTGQDIWRLEDGGNLWGVLPVKYKVYPDLLEEAGYAIGFQGKGWGPGSFEANKRPRNPAGNEFKSFGAFLKDKKEGPWCYWISSHEPHRPYVEGSGEKAGIDPNKVKVPAYLPDHISIRKDIADYYAAVETFDRELGEALDQLKASGELDNTVIVVCSDNGWQMPRGLANLYDFGTHVPLIISWPGKFKQDVVADNLVTLNDLAPTFLQLGKVPVPADMTGKSLLPIVEAGKKDEKPRDYVVLGRERHAFVRRHGLGYPGRAIRTKDYLYIKNYEPNRWPAGDPPFYGDIDPYMFNWPGETKYYLIEHKDDPKVKSFFELGMGKRPAEELFDINKDPDELHNLAALPEYQKIKQELVAKLRNYLVATKDPRETNGNIQIWDTAAYFSEIDKTPKPSKEMQKRFKLDSSYNYLK
notes: E. coli BL21(DE3), N-terminal 6xHis removed by thrombin
pH range of activity compared with the other enzyme (compared with 6-O-sulfatase): active over a broader range, especially above pH 7.0
